According to PMC10728891:

How the values were obtained:
human insulin (human) [1] = molecular target: human insulin (human) (UniProt P01308); test: AUC; sedimentation velocity, 300 μM insulin, […] m-cresol, […] ZnCl2, 25 mM tris buffer pH 8.0, interference optics
human insulin (human) [2] = molecular target: human insulin (human) (UniProt P01308); test: circular dichroism, dissociation kinetics after dilution; 600 μM insulin, 250 μM ZnCl2, 25 mM m-cresol, 25 mM tris pH 8 (R6 hexamer), diluted 150-fold into 25 mM tris pH 8.0; ellipticity at 222 nm over 120 s at 25 °C; monoexponential fit; hexamer to monomers

stoichiometry N (human insulin (human) [1]): 6
t1/2 of hexamer dissociation (human insulin (human) [2]): 18.4 s
Substance: human insulin (from UniProt P01308 25-54; P01308 90-110) (natural protein)
